Reference: patent US5922685

How the values were obtained:
CD4 (mouse) = CD4 (mouse) (UniProt P06332)

Substance: anti-CD4 mAb (clone GK1.5) (antibody)
- depletion of T cell subset in mice (CD4 (mouse)): > 90%

Substance: anti-CD8 mAb (clone 2.43) (antibody)
- depletion of T cell subset in mice (CD8 (mouse)): > 90%
